B1: FAM46C (parent)
chain: FDHLQNRLIATKNPEEIRGGGLLK

Variants of: B1
Test: protein stability index of a GFP-peptide fusion (GPS, HEK-293T) (PSI 1-6); higher = more stable
Settings: c terminus: a fixed tail appended
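Also: lentivirally expressed fusions sorted by FACS into six bins by GFP to DsRed ratio, PSI derived from sequencing read proportions per bin multiplied by bin number.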

| Variant | protein stability index |
| --- | --- |
| FDHLQNRLIGTKNPEEIRGGGLLK [A10G] | 3.52 |
| FDHLQNRLIITKNPEEIRGGGLLK [A10I] | 2.71 |
| FDHLQNRLIKTKNPEEIRGGGLLK [A10K] | 3.49 |
| FDHLQNRLILTKNPEEIRGGGLLK [A10L] | 2.57 |
| FDHLQNRLINTKNPEEIRGGGLLK [A10N] | 4.07 |
| FDHLQNRLIPTKNPEEIRGGGLLK [A10P] | 4.52 |
| FDHLQNRLIQTKNPEEIRGGGLLK [A10Q] | 2.25 |
| FDHLQNRLITTKNPEEIRGGGLLK [A10T] | 3.88 |
| FDHLQNRLIVTKNPEEIRGGGLLK [A10V] | 3.38 |
| FDHLQNRLIYTKNPEEIRGGGLLK [A10Y] | 1.87 |
| FDHLQNRLIAAKNPEEIRGGGLLK [T11A] | 3.55 |
| FDHLQNRLIACKNPEEIRGGGLLK [T11C] | 3.41 |
| FDHLQNRLIADKNPEEIRGGGLLK [T11D] | 3.75 |
| FDHLQNRLIAEKNPEEIRGGGLLK [T11E] | 4.71 |
| FDHLQNRLIAFKNPEEIRGGGLLK [T11F] | 3.73 |
| FDHLQNRLIALKNPEEIRGGGLLK [T11L] | 4.29 |
| FDHLQNRLIAMKNPEEIRGGGLLK [T11M] | 3.7 |
| FDHLQNRLIANKNPEEIRGGGLLK [T11N] | 4.01 |
| FDHLQNRLIAPKNPEEIRGGGLLK [T11P] | 3.63 |
| FDHLQNRLIAQKNPEEIRGGGLLK [T11Q] | 4.2 |
| FDHLQNRLIARKNPEEIRGGGLLK [T11R] | 3.97 |
| FDHLQNRLIASKNPEEIRGGGLLK [T11S] | 3.56 |
| FDHLQNRLIAVKNPEEIRGGGLLK [T11V] | 3.74 |
| FDHLQNRLIAWKNPEEIRGGGLLK [T11W] | 3.98 |

| Variant | protein stability index |
| --- | --- |
| FDHLQNRLIAYKNPEEIRGGGLLK [T11Y] | 3.31 |
| FDHLQNRLIATANPEEIRGGGLLK [K12A] | 3.68 |
| FDHLQNRLIATCNPEEIRGGGLLK [K12C] | 2.9 |
| FDHLQNRLIATENPEEIRGGGLLK [K12E] | 3.71 |
| FDHLQNRLIATFNPEEIRGGGLLK [K12F] | 2.59 |
| FDHLQNRLIATGNPEEIRGGGLLK [K12G] | 4 |
| FDHLQNRLIATHNPEEIRGGGLLK [K12H] | 3.1 |
| FDHLQNRLIATLNPEEIRGGGLLK [K12L] | 2.65 |
| FDHLQNRLIATMNPEEIRGGGLLK [K12M] | 3.37 |
| FDHLQNRLIATNNPEEIRGGGLLK [K12N] | 3.82 |
| FDHLQNRLIATPNPEEIRGGGLLK [K12P] | 4.24 |
| FDHLQNRLIATQNPEEIRGGGLLK [K12Q] | 3.61 |
| FDHLQNRLIATTNPEEIRGGGLLK [K12T] | 3.75 |
| FDHLQNRLIATVNPEEIRGGGLLK [K12V] | 4.38 |
| FDHLQNRLIATYNPEEIRGGGLLK [K12Y] | 3.24 |
| FDHLQNRLIATKCPEEIRGGGLLK [N13C] | 3.15 |
| FDHLQNRLIATKEPEEIRGGGLLK [N13E] | 4.1 |
| FDHLQNRLIATKFPEEIRGGGLLK [N13F] | 2.96 |
| FDHLQNRLIATKGPEEIRGGGLLK [N13G] | 2.86 |
| FDHLQNRLIATKHPEEIRGGGLLK [N13H] | 2.77 |
| FDHLQNRLIATKIPEEIRGGGLLK [N13I] | 3.47 |
| FDHLQNRLIATKKPEEIRGGGLLK [N13K] | 4.03 |
| FDHLQNRLIATKMPEEIRGGGLLK [N13M] | 2.81 |
| FDHLQNRLIATKQPEEIRGGGLLK [N13Q] | 3.86 |

| Variant | protein stability index |
| --- | --- |
| FDHLQNRLIATKSPEEIRGGGLLK [N13S] | 3.62 |
| FDHLQNRLIATKTPEEIRGGGLLK [N13T] | 3.64 |
| FDHLQNRLIATKWPEEIRGGGLLK [N13W] | 3.14 |
| FDHLQNRLIATKNAEEIRGGGLLK [P14A] | 3.69 |
| FDHLQNRLIATKNCEEIRGGGLLK [P14C] | 3.74 |
| FDHLQNRLIATKNDEEIRGGGLLK [P14D] | 3.87 |
| FDHLQNRLIATKNFEEIRGGGLLK [P14F] | 2.97 |
| FDHLQNRLIATKNGEEIRGGGLLK [P14G] | 4.2 |
| FDHLQNRLIATKNIEEIRGGGLLK [P14I] | 2.39 |
| FDHLQNRLIATKNKEEIRGGGLLK [P14K] | 3.77 |
| FDHLQNRLIATKNLEEIRGGGLLK [P14L] | 3.87 |
| FDHLQNRLIATKNMEEIRGGGLLK [P14M] | 3.66 |
| FDHLQNRLIATKNNEEIRGGGLLK [P14N] | 4.12 |
| FDHLQNRLIATKNQEEIRGGGLLK [P14Q] | 3.54 |
| FDHLQNRLIATKNREEIRGGGLLK [P14R] | 4 |
| FDHLQNRLIATKNSEEIRGGGLLK [P14S] | 3.49 |
| FDHLQNRLIATKNTEEIRGGGLLK [P14T] | 3.84 |
| FDHLQNRLIATKNVEEIRGGGLLK [P14V] | 3.25 |
| FDHLQNRLIATKNWEEIRGGGLLK [P14W] | 2.59 |
| FDHLQNRLIATKNYEEIRGGGLLK [P14Y] | 3.2 |
| FDHLQNRLIATKNPAEIRGGGLLK [E15A] | 3.92 |
| FDHLQNRLIATKNPCEIRGGGLLK [E15C] | 2.9 |
| FDHLQNRLIATKNPDEIRGGGLLK [E15D] | 4.07 |
| FDHLQNRLIATKNPFEIRGGGLLK [E15F] | 3.06 |

| Variant | protein stability index |
| --- | --- |
| FDHLQNRLIATKNPGEIRGGGLLK [E15G] | 2.99 |
| FDHLQNRLIATKNPHEIRGGGLLK [E15H] | 3.65 |
| FDHLQNRLIATKNPIEIRGGGLLK [E15I] | 2.93 |
| FDHLQNRLIATKNPKEIRGGGLLK [E15K] | 3.25 |
| FDHLQNRLIATKNPLEIRGGGLLK [E15L] | 2.78 |
| FDHLQNRLIATKNPMEIRGGGLLK [E15M] | 4.01 |
| FDHLQNRLIATKNPNEIRGGGLLK [E15N] | 3.95 |
| FDHLQNRLIATKNPPEIRGGGLLK [E15P] | 3.13 |
| FDHLQNRLIATKNPQEIRGGGLLK [E15Q] | 2.53 |
| FDHLQNRLIATKNPREIRGGGLLK [E15R] | 3.89 |
| FDHLQNRLIATKNPSEIRGGGLLK [E15S] | 3.75 |
| FDHLQNRLIATKNPTEIRGGGLLK [E15T] | 3.29 |
| FDHLQNRLIATKNPWEIRGGGLLK [E15W] | 2.63 |
| FDHLQNRLIATKNPYEIRGGGLLK [E15Y] | 1.97 |
| FDHLQNRLIATKNPEAIRGGGLLK [E16A] | 3.43 |
| FDHLQNRLIATKNPECIRGGGLLK [E16C] | 2.85 |
| FDHLQNRLIATKNPEDIRGGGLLK [E16D] | 4.13 |
| FDHLQNRLIATKNPEFIRGGGLLK [E16F] | 2.44 |
| FDHLQNRLIATKNPEGIRGGGLLK [E16G] | 2.93 |
| FDHLQNRLIATKNPEHIRGGGLLK [E16H] | 2.55 |
| FDHLQNRLIATKNPEIIRGGGLLK [E16I] | 3.9 |
| FDHLQNRLIATKNPEKIRGGGLLK [E16K] | 4.02 |
